Values of other authors in publication PMC7529620.

Target: NCAM/GFRα1 (Homo sapiens) (UniProt P13591)
Chain of UniProt P13591 (P13591 20-718, chain 1 of 2): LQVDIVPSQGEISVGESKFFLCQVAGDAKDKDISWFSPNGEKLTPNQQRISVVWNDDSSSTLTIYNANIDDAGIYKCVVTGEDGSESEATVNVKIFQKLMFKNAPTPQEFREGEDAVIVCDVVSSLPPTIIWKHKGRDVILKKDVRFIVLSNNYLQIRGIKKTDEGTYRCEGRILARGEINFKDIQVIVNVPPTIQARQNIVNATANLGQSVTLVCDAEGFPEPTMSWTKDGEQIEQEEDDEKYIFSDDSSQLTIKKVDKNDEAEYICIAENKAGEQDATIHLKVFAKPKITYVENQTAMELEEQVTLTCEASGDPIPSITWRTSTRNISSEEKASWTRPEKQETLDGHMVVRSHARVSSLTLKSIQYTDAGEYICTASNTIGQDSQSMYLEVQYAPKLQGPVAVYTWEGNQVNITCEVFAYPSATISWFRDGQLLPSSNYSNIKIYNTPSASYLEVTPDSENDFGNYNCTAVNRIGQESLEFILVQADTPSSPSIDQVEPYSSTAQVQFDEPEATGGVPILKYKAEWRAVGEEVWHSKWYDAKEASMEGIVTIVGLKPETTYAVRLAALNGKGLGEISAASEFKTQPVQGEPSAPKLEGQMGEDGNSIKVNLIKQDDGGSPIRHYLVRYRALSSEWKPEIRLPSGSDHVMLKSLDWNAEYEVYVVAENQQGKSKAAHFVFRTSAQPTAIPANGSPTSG
Chain of UniProt P13591 (P56159 25-429, chain 2 of 2, further chain): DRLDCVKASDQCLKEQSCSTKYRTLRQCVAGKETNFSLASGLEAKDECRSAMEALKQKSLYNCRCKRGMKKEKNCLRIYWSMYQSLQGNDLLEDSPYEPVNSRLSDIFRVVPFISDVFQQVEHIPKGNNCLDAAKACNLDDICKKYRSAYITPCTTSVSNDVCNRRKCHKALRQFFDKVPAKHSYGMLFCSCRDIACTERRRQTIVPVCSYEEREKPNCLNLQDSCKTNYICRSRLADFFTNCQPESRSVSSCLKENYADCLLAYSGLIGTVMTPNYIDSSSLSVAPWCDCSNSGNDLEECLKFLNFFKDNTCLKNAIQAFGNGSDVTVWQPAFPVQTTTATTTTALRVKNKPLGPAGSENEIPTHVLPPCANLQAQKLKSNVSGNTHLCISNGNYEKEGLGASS

Kd: 1 nM
Substance: GDNF (from UniProt P39905)
